Reference: patent US20140193401A1 (published 2014)
Where two headings read alike, the source gives them in different places.

Assays:
[1] = target: T1, PTx-S1-220 (truncated PTx-S1, residues 1-220, strain Tohama I, variant B) (Bordetella pertussis, UniProt P04977 35-254); assay: SPR (BIAcore 3000), mAb 1B7 immobilised on CM5 chip, toxin injected
T1 construct: also called WT PTx-S1-220; PTx-S1B
T1 sequence: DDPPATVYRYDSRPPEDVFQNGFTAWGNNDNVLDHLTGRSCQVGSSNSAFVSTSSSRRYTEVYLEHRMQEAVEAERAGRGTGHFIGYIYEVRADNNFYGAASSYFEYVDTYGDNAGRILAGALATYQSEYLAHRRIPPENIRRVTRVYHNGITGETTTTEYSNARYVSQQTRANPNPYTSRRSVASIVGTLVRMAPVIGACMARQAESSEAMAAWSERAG

[2] = target: T2, PTx-S1A (residues 1-220, M194I) (Bordetella pertussis, UniProt P04977 35-254); assay: as above
T2 chain: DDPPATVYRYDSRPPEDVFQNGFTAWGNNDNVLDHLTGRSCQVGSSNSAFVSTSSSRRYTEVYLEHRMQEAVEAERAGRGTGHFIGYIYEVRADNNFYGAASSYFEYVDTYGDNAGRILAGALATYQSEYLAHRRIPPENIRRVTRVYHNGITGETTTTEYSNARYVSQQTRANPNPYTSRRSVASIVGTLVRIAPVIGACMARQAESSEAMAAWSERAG

[3] = target: T3, PTx-S1D (residues 1-220, D34E, I198V) (Bordetella pertussis, UniProt P04977 35-254); assay: as above
T3 chain: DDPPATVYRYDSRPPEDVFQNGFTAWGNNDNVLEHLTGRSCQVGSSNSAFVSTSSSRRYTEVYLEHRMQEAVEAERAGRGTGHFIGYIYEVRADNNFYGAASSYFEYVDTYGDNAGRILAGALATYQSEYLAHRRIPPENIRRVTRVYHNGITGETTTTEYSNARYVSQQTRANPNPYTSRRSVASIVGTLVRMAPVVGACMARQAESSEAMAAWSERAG

[4] = target: full length PTx-S1 (1-235) protomer (Bordetella pertussis, UniProt P04977 35-269); assay: as above
[5] = target: T4, pertussis toxin B-oligomer (Bordetella pertussis, UniProt P04978 31-226; P04979 32-227; P0A3R5 43-152; P04981 36-133); assay: as above
[6] = target: T5, PTx-S1 9K/129G (residues 1-220, R9K, E129G) (Bordetella pertussis, UniProt P04977 35-254); assay: as above
T5 chain: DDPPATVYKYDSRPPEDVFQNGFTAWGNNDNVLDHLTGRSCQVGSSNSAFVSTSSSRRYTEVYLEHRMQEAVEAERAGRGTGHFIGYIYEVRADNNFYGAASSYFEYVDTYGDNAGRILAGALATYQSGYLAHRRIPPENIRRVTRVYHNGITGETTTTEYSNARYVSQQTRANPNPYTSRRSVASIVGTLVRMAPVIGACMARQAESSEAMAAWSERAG

[7] = target: T6, pertussis toxin holotoxin (Bordetella pertussis, UniProt P04977 35-269; P04978 31-226; P04979 32-227; P0A3R5 43-152; P04981 36-133); assay: as above
T6 construct: also called PTx; PT

[8] = target: T7, PTx-S1-220 Y8A (Bordetella pertussis, UniProt P04977 35-254); assay: Western blot with mAb 1B7; paragraph 150 says 1B7 was unable to bind Y8A
T7 chain: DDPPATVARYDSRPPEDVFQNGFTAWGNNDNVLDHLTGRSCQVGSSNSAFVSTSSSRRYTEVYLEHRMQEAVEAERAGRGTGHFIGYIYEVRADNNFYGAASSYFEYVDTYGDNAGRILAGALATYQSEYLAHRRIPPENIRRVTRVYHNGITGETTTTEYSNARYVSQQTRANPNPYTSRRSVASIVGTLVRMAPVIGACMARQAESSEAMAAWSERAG

[9] = target: T1, PTx-S1-220 (truncated PTx-S1, residues …)
[10] = target: T4, pertussis toxin B-oligomer; assay: ELISA repeated with mAb 1B7; EC50 as percent of the PTx reference
[11] = target: T6, pertussis toxin holotoxin; assay: competition ELISA (Friguet), 5 nM antibody with PT in solution, coated PT
[12] = target: pertussis toxin subunit S3 (Bordetella pertussis, UniProt P04979 29-227); assay: Western blot of B-oligomer and PTx
[13] = target: pertussis toxin subunit S2 (Bordetella pertussis, UniProt P04978 28-226); assay: Western blot of B-oligomer and PTx
[14] = target: pertussis toxin subunit S5 (Bordetella pertussis, UniProt P04981 35-133); assay: Western blot of B-oligomer and PTx
[15] = target: pertussis toxin subunit S4 (Bordetella pertussis, UniProt P0A3R5 43-152); assay: Western blot of B-oligomer and PTx
[16] = target: T6, pertussis toxin holotoxin; assay: cell-based or functional assay

B1: murine monoclonal antibody 1B7 (antibody, V domains shown)
VH: EVQLQQSGSELVRPGASVKLSCKASGYKFTSYWMHWVKQRPGQGLEWIGNIFPGSGSTNYDEKFNSKATLTVDTSSNTAYMQLSSLTSEDSAVYYCTRWLSGAYFDYWGQGTTLTVSS
VL: DIQMTQSPALMSASPGEKVTMTCSASSSVSFMYWYQQKPRSSPKPWIYLTSNLPSGVPARFSGSGSGTSYSLTISSMEAEDAATYYCQQWSSHPPTFGSGTKLEIKR
notes: also called mAb 1B7; 1B7 mAb
Work on B1 yielded a koff [1] of 0.0014 s⁻¹, a koff [2] of 0.00071 s⁻¹ and a koff [3] of 0.00095 s⁻¹. For the same binder, the koff [4] was 0.0019 s⁻¹, the koff [5] was 0.0027 s⁻¹ and the koff [6] was 0.0016 s⁻¹. For the same binder, the koff [7] was 0.0004 s⁻¹, the binding result [8] was “no binding” and the koff [9] was 0.0019 s⁻¹. For the same binder, the “% EC50 PTx” value [10] was 30%, the Kd [11] was 1.1 nM and the binding result [12] was “no binding”. B1: no binding [13]; no binding [14]; no binding [15]. The “In Vitro Neutralization (nM), minimum protective concentration, CHO clustering assay” value [16] was 5.2 nM.
